This is an account of results in patent US12129308.

For the assay, the target named is Aggrecan. Put plainly: competition ELISA (CAP) on Aggrecan; competitor not stated.

B1: C010100626 (bispecific antibody, part only; not given: albumin binder and linker, not shown: small tags and cut ends)
chain, part: EVQLVESGGGLVQPGGSLRLSCAASGSTFIINVVRWYRRAPGKQRELVATISSGGNANYVDSVRGRFTISRDNSKNTVYLQMNSLRPEDTAVYYCNVPTTHYGGVYYGPYWGQGTLVTVSSEVQLVESGGGLVQPGGSLRLSCAASGSTFIINVVRWYRRAPGKQRELVATISSGGNANYVDSVRGRFTISRDNSKNTVYLQMNSLRPEDTAVYYCNVPTTHYGGVYYGPYWGQGTLVTVSS
On to B1, for which the half-maximal inhibitory concentration (IC50) came to 0.87 nM.

Broadly, the IC50 is the concentration that gives 50% inhibition.
